This note sets out measurements from patent US20090123479A1 (published 2009).

The target in assay [1] is T1, recombinant human IL-23 (human, UniProt Q9NPF7 20-189; P29460 23-328).
T1 construct: also called hIL-23
T1 sequence 1: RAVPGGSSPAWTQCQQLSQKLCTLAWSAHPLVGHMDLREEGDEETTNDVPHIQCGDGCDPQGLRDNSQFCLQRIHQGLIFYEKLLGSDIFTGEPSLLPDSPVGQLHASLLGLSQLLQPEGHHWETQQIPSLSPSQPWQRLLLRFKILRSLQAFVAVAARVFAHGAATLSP
T1 sequence 2: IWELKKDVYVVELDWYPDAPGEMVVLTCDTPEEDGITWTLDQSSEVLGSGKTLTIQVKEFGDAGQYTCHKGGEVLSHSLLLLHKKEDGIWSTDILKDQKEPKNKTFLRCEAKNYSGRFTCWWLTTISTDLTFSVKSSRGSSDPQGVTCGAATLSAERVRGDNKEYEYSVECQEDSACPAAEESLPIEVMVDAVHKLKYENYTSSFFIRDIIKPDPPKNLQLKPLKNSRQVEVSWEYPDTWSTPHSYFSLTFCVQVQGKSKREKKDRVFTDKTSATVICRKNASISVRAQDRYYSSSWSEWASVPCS
The assay can be described thus: SPR (Biacore 3000), hybridoma supernatant mAb captured on anti-murine IgG, human IL-23 analyte, 1:1 model, 25 C. The method, then: (§1) Anti-murine IgG was immobilised on a CM5 sensorchip using amine coupling chemistry. Anti-IL-23 hybridoma antibody sample was injected over the surface and the murine mAb captured. Subsequently recombinant human IL-23, recombinant cynomologus IL-23 or recombinant human IL-12 was flowed over the captured antibody surface at 5 different concentrations (range 0 nM-91 nM) to obtain binding sensorgrams. Regeneration of the surface after antibody and antigen injections was done by injecting 0.1 M phosphoric acid for 3 minutes. Double referencing was used on all sensorgrams with a buffer injection over the anti-murine IgG sensorchip surface. The experiment was performed at 25° C. in HBS-EP buffer. Resulting sensorgram data was analysed using the 1:1 binding model incorporated within the Biaevaluation software for the Biacore 3000 instrument. Data presented in Table 2 are from using hybridoma supernatant taken from a tissue culture flask.

Assay [2] deals with T2, recombinant cynomologus IL-23 (cynomolgus, limits assumed).
T2 construct: also called cynomolgus IL-23; cyno IL23
T2 chain 1: T1 sequence 1 with T12A, H75R, L131P
T2 chain 2: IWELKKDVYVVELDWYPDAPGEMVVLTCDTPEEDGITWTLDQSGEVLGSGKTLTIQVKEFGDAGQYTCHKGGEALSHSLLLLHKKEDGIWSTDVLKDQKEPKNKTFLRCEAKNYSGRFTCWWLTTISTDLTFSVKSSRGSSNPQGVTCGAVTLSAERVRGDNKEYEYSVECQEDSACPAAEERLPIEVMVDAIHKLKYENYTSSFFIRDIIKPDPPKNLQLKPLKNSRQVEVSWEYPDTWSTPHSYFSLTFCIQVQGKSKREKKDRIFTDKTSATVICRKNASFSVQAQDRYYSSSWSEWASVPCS
The assay can be described thus: SPR (Biacore 3000), hybridoma supernatant mAb captured on anti-murine IgG, cynomologus IL-23 analyte, 1:1 model, 25 C. On the procedure: as §1

For another assay, the target named is T3, Endogenous human IL-23 (human, UniProt Q9NPF7 20-189; P29460 23-328).
T3 construct: also called endogenous human IL-23 from stimulated dendritic cells
T3 sequence 1: T1 sequence 1
T3 sequence 2: T1 sequence 2
The assay can be described thus: receptor inhibition ELISA: plate coated with recombinant human IL-23 receptor, endogenous human IL-23 at 3.5 ng/ml pre-incubated with titrated purified antibody, bound IL-23 detected with biotinylated anti-human IL-12; 1% BSA. On the procedure:
Recombinant human IL-23 Receptor (R&D systems 1400-IR-050) was coated onto 96 well plates at a concentration of 1 μg/ml. Endogenous human IL-23 at 3.5 ng/ml final, was pre incubated for 1 hour with a titration of purified antibody material before being added to the pre-coated plates. Detection was performed with biotinylated anti-human 1L12 (R&D systems BAF-219) followed by Streptavidin-HRP (GE Healthcare RPN 4401). This neutralisation ELISA used 1% BSA.

Assay [3] deals with T1, recombinant human IL-23. Description: SPR (Biacore T100), CHO supernatant antibody captured on Protein A or anti-human IgG, IL-23 analyte at 256, 64, 16, 4, 1 nM.
Assay [4] concerns the target T1, recombinant human IL-23. The assay can be described thus: sandwich ELISA (optimised protocol, OD450): plate coated with anti-human IL-12, antibody pre-incubated with constant human IL-23, bound antibody detected with anti-human IgG gamma chain HRP; purified antibody. On the procedure: Optimised assay conditions: Plates were coated with anti human IL12 at 2 μg/diluent (phosphate buffered saline). 50 μl/well of this mixture was incubated overnight at 4° C. The plates were then washed three times with Phosphate Buffered Saline with 0.05% Tween 20 (PBST). Plates were blocked with 4% skim milk powder (Fluka BioChemika #70166) PBS 200 μl/well for a minimum of 1 hour at room temperature. The plates were then washed three times with Phosphate Buffered Saline+0.05% Tween 20 (PBST). Various concentrations of antibody were incubated in a separate plate with a constant concentration of IL-23 for 1 hour at room temperature. 50 ul of each mixture were transferred to the assay plate and incubated at RT for 1 hr. They were then washed three times with Phosphate Buffered Saline+0.05% Tween 20 (PBST). […] 50 μl/well of the detection antibody was added and incubated at RT for 1 hour. The plates were then washed three times with Phosphate Buffered Saline+0.05% Tween 20 (PBST). 50 μl/well of TMB was added to the plates and incubated at RT for 10 min. 50 μl/well of 1 MH₂SO₄ was added. The plate was read at OD450 nm using the SOftmaxPRO versamax plate reader.

Assay [5] deals with T1, recombinant human IL-23. Description: IL-23/IL-23R inhibition ELISA (optimised protocol, OD450): plate coated with human IL23R Fc chimera, antibody pre-incubated with constant human IL-23, bound IL-23 detected with biotinylated anti-human IL-12; purified antibody. On the procedure: (§2) Optimised protocol: Plates were coated with human IL23R Fc chimera at […] (phosphate buffered saline). 50 μl/well of this mixture was incubated overnight at 4° C. The plates were then washed three times with Phosphate Buffered Saline with 0.05% Tween 20 (PBST). Plates were blocked with 4% skim milk powder (Fluka BioChemika #70166) PBST 100 μl/well for a minimum of 1 hour at room temperature. The plates were then washed three times with Phosphate Buffered Saline+0.05% Tween 20 (PBST). Various concentrations of antibody were incubated in a separate plate with a constant concentration of IL-23 for 1 hour at room temperature. 50 ul of each mixture were transferred to the assay plate and incubated at RT for 1 hr. They were then washed three times with Phosphate Buffered Saline+0.05% Tween 20 (PBST). Bound IL23 was detected by anti human 1L12 Biotin labelled Ab (R&D systems BAF219) diluted to 100 ng/ml in 4% skim milk powder (Fluka BioChemika #70166) PBST. 50 μl/well of the biotinylated antibody was added and incubated at RT for 1 hour. The plates were then washed three times with Phosphate Buffered Saline+0.05% Tween 20 (PBST). SA HRP (GE healthcare RPN4401) was diluted 1/4000 in 4% skim m ilk powder (Fluka BioChemika #70166) PBS, 50 μl/well was added to the plates. The plates were then washed three times with Phosphate Buffered Saline+0.05% Tween 20 (PBST). 50 ul/well of TMB was added to the plates and incubated at RT for 15 min. 25 μl/well of 3 MH₂SO₄ was added to the wells already containing TMB. The plate was read at OD450 nm using the SOftmaxPRO versamax plate reader.

Assay [6] concerns the target T1, recombinant human IL-23. Description: SPR (Biacore 3000), CHO supernatant antibody captured on Protein A or anti-human IgG, IL-23 analyte at 256, 64, 16, 4 nM.
Assay [7] has as its target T2, recombinant cynomologus IL-23. The assay can be described thus: IL-23/IL-23R inhibition ELISA (optimised protocol, OD450): plate coated with human IL23R Fc chimera, antibody pre-incubated with constant cynomolgus IL-23, bound IL-23 detected with biotinylated anti-human IL-12; purified antibody. The method, then: as §2

Where a chain is given by its changes, count along the chain named.

B1: murine mAb 8C9 2H6 (antibody, V domains shown)
VH: QVQLQQSGAELARPGTSVKLSCKASGYTFTSYGITWVKQRTGQGLEWIGENYPRSGNTYYNEKFKGKATLTADKSSSTAYMELRSLTSEDSAVYFCARCEFISTVVAPYYYALDYWGQGTSVTVSS
VL: DIVLTQSPASLAVSLGQKATISCKASKKVTIFGSISALHWYQQKPGQPPKLIYNGAKLESGVSARFSDSGSQNRSPFGNQLSFTLTIDPVEADDAATYYCLQNKEVPYTFGGGTKLEIK
notes: Murine hybridoma antibody; also called mouse parental; IL-23 murine 8C92H6 mAb
Consider B1, for which, in the assay with recombinant human IL-23 [1], the Kd was 2.99 nM, the off-rate constant (koff) came to 0.000301 s⁻¹ and the kon was 101000 M⁻¹ s⁻¹. For the same molecule, in assay [2], the Kd came to 3.38 nM, the koff was found to be 0.000369 s⁻¹ and the kon was 110000 M⁻¹ s⁻¹. In addition, in the assay with Endogenous human IL-23, the “IC50 (read off the curve)” value was approximately 0.06 µg/mL.

B2: A3N1 (antibody, human IgG1, kappa, V domains shown)
VH: QVQLVQSGAEVKKPGSSVKVSCKASGYTFTSYGITWVRQAPGQGLEWMGENYPRSGNTYYNEKFKGRVTITADKSTSTAYMELSSLRSEDTAVYYCARSEFISTVVAPYYYALDYWGQGTLVTVSS
VL: DIVMTQTPLSLSVTPGQPASISCKASKKVTIFGSISALHWYLQKPGQPPQLIYNGAKLESGVSDRFSDSGSQNRSPFGNQLSFTLKISRVEAEDVGVYYCLQNKEVPYTFGGGTKVEIKR
notes: Full length chains
As to B2, the Kd with recombinant human IL-23 [3] worked out at 4.1 nM; with recombinant human IL-23 [6], 2.3 nM. Also, the results for the off-rate (koff) with recombinant human IL-23 [3] and with recombinant human IL-23 [6] were 0.00035 s⁻¹ and 0.00039 s⁻¹, respectively. Also, the kon in the assay with recombinant human IL-23 [3] came out at 84000 M⁻¹ s⁻¹; with recombinant human IL-23 [6], 170000 M⁻¹ s⁻¹. For the same molecule, in the assay with recombinant human IL-23 [4], the concentration for a half-maximal effect (EC50 (read off the curve)) was approximately 0.04 nM. For the same molecule, the “IC50 (read off the curve)” value was approximately 1 nM in the assay with recombinant human IL-23 [5] and approximately 0.9 nM in assay [7].

B3: A3N2 (antibody, human IgG1, kappa, V domains shown)
VH: B2 VH
VL: DIVMTQTPLSLSVTPGQPASISCKASKKVTIFGSISALHWYLQKPGQPPQLIYNGAKLESGVSDRFSDSGSGTDFTLKISRVEAEDVGVYYCLQNKEVPYTFGGGTKVEIKR
notes: Full length chains
In the case of B3, in the assay with recombinant human IL-23 [3], the dissociation constant Kd stood at 1.6 nM, the koff worked out at 0.00038 s⁻¹ and the kon worked out at 240000 M⁻¹ s⁻¹. Moreover, in the assay with recombinant human IL-23 [4], the “EC50 (read off the curve)” value is approximately 0.04 nM. Moreover, the “IC50 (read off the curve)” value with recombinant human IL-23 [5] was approximately 0.8 nM. Further, in the assay with recombinant human IL-23 [6], the Kd stood at 1.5 nM, the koff came to 0.00041 s⁻¹ and the kon amounted to 280000 M⁻¹ s⁻¹. Moreover, the “IC50 (read off the curve)” value in assay [7] was approximately 1 nM.
